Here are results for 2 molecules from patent US9902783B2, “Antibodies and pharmaceutical compositions containing same useful for inhibiting activity of metalloproteins” (Yeda Research and Development Co. Ltd., priority 2007, dated 2018).

A short description of assay [1]: competitive ELISA, affinity of mAbs toward their immunizing hapten. The following applies: concentration of soluble hapten for 50% binding. How it is done: Supernatants of the growing hybridomas were screened for antibodies reactive with ZnTCPP, CoTCPP or Imisdp using direct ELISA in which respective hapten-BSA (3 μg/ml in PBS) was coated to Nunc maxisorp plates. The coating was performed at 4° C. overnight and incubation with antibodies at 20° C. for 1 h. HRP-conjugated anti-mouse mAb (Sigma) was used as the secondary antibody and 2,2′-azino-bis (3-ethylbenzthiazoline-6-sulphonic acid, ABTS, Sigma) was used as substrate. PBS containing 0.005% v/v Tween 20 (PBST) was used as washing reagent. The dilution buffer was PBS. A602 was recorded by microplate reader in […]luor Plus spectrometer (Tecan, Austria). As control supernatants were incubated with BSA coated plates in the same manner Absorbance values above 0.5 millioptical density were considered as positive.
Different dilutions of hybridoma supernatant were incubated with hapten-BSA coated plates following the steps described earlier. Titration curve was plotted and the titer dilution was determined at 50% of binding. Supernatants diluted to the titer concentration were preincubated with soluble ZnTCPP, CoTCPP or Imisdp compounds for 30 minutes and then transferred to hapten-coated microtiter plates following the steps described previously. The estimated dissociation constant was the concentration of soluble hapten required to attain 50% binding.
A general note: An ELISA detects its analyte on a solid surface through an enzyme-linked reagent.

A further assay concerns MMP-2. Put plainly: kinetic assay with fluorogenic peptide substrate, MMP-2. It is filed as biochemical, human. The following applies: for inhibition of proteolytic activity of MMP-2: continuous fluorometric assay.
For another assay, the system named is MMP-9. Put plainly: kinetic assay with fluorogenic peptide substrate, MMP-9. In kind it is biochemical, human. The following applies: for mode of inhibition of MMP-9: Lineweaver-Burk plot; for IC50: Table 4; for inhibition of proteolytic activity of MMP-9: continuous fluorometric assay.
A further assay deals with MT1-MMP (MMP-14) (Homo sapiens, UniProt P50281). As to the kind of experiment: kinetic assay with fluorogenic peptide substrate, MT1-MMP. In kind it is biochemical. The note with it: for Ki: fit to competitive inhibition, fluorogenic peptide substrate.
In a further assay the target is TACE (ADAM-17) (Homo sapiens, UniProt P78536). As to the kind of experiment: kinetic assay with fluorogenic peptide QF-45, TACE. The note with it: for inhibitory effect toward TACE: in-vitro fluorescence enzymatic activity assay. It is filed as biochemical.
Assay [2] concerns cell surface gelatinolytic activity of HT1080 cells. Put plainly: in situ zymography with DQ-gelatin. It is filed as cell-based, human. Here is the method:
To localize net gelatinolytic activity of MMPs by in situ zymography, fluorescein isothiocyanate-labeled DQ gelatin that is intramolecularly quenched (Molecular Probes) was used as a substrate for degradation by gelatinases. Proteolysis by gelatinases yields cleaved fluorescein isothiocyanate-gelatin peptides and the localization of this fluorescence indicates the sites of net gelatinolytic activity. Briefly, Human fibrosarcoma HT1080 cells (which produce MMP-2, MMP-9 and MT1-MMP) were plated on 12-mm coverslips. […] Untreated cells served as negative control for this experiment. Cells were washed with PBS and then incubated with zymography reaction buffer (0.05 M Tris-HCl, 0.15 M NaCl, 5 mM CaCl2, and 0.2 mM NaN3, pH 7.6, the high concentration of azide prevented the gelatin from being phagocytosed and thus allowing cell surface gelatinolytic activity to occur) containing 60 ug/ml DQ gelatin at 37° C. overnight. […] At the end of the incubation period, without fixation or further washes, gelatinolytic activity of the MMPs was localized and photographed by fluorescence microscopy and images were acquired by Spot digital camera.
To confirm the inhibitory activity of anti CoTCPP mAb at cellular level, the effect of the antibody was examined on gelatinolytic activity of human fibrosarcoma HT1080 cells that constitutively secrete MMP-2 and 9 by in situ zymography. To localize gelatinolytic activity of MMPs by in situ zymography, fluorescein isothiocyanate-labeled gelatin that is intramolecularly quenched (DQ-gelatin) was used as substrate. Proteolysis by gelatinases yields cleaved fluorescein isothiocyanate-gelatin peptides and the localization of this fluorescence indicates the sites of net gelatinolytic activity.

The subject of another assay is MT1 catalytic domain. As to the kind of experiment: immuno affinity binding assay, MT1-MMP. The note with it: purified enzyme. How it is done: MAbs (10 μg) were incubated with anti mouse IgG Agarose beads (Sigma) overnight at 4° C. in PBS. After washing unbound antibody, purified Pro-MMP-2, Pro-MMP-9 MMP-2 catalytic domain, MT1 catalytic domain or TACE (2 μg), were added following 2 h incubation at RT. The beads were collected by centrifugation and washed three times with PBS. The proteins that remained bound to the beads were eluted with SDS sample buffer, fractionated by SDS-PAGE, and detected by staining with Coomassie blue.

Assay [3] has as its system Carbonic Anhydrase (CA). Put plainly: functional inhibition experiment, Carbonic Anhydrase. It is filed as biochemical. The following applies: for inhibition of Carbonic Anhydrase: in vitro functional inhibition. From the text: (§1) The selectivity of anti CoTCPP and anti Imisdp was further challenged, by testing their cross reactivity with non related zinc dependent enzymes—Carbonic Anhydrase (CA) and brockii alcohol dehydrogenase (TbADH). Similar to active MMPs CA contains a zinc ion that is tetrahedraly coordinated to three histidine residues and a water molecule, TbADH contains a catalytic zinc ion that is tetraheadrally coordinated to four different amino acid residues, histidine, cysteine, aspartate and glutamate. […] Anti CoTCPP mAb was also tested for its cross reactivity with related physiological porphyrins such as the Heme group within Myoglobin and Hemoglobin and vitamin.
(§2) 6C6 was also tested for cross reactivity with different zinc dependent metalloproteases, Carbonic Anhydrase and Alcohol Dehydrogenase. Analogous to MMPs, Carbonic Anhydrase (CA) has a catalytic zinc ion tetrahedraly coordinated to three histidine ligands and a water molecule. Consequently, several potent small molecule MMP inhibitors (of the sulfonylated amino acid hydroxamate type) also act as efficient CA inhibitors and vice versa. Some N-hydroxysulfonamides investigated previously as CA inhibitors also show inhibitory properties against MMPs [Scozzafava, A. and C. T. Supuran, J Med Chem, 2000. 43(20): p. 3677-87]. The active site of Alcohol Dehydrogenase from thermophilic bacterium (TbADH) includes a different zinc-protein moiety in which zinc is bound to histidine, cysteine, aspartate and glutamate located inside a crevice.

Assay [4] relates to Carbonic Anhydrase (CA). As to the kind of experiment: immuno affinity binding experiment, Carbonic Anhydrase.
Description: as §1

The target of assay [5] is T1, Alcohol Dehydrogenase (TbADH) (Thermoanaerobacter brockii, UniProt P14941).
T1 sequence (P14941 1-352): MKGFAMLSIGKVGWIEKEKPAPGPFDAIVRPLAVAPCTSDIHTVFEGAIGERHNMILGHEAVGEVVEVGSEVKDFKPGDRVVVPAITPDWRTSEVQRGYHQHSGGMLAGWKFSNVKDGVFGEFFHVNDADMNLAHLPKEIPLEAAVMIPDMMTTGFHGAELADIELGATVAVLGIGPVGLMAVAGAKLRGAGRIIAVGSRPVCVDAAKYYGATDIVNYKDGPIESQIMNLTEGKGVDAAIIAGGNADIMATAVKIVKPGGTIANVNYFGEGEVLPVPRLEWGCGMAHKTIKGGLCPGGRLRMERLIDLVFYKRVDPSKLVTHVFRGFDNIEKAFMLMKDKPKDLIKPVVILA
As to the kind of experiment: functional inhibition experiment, alcohol dehydrogenase. In kind it is biochemical, thermophilic bacterium. The following applies: for inhibition of TbADH: in vitro functional inhibition.
Description: as §1, §2

The target of assay [6] is T2, brockii alcohol dehydrogenase (TbADH) (Thermoanaerobacter brockii, UniProt P14941).
T2 sequence (P14941 1-352): T1 sequence (P14941 1-352)
Put plainly: immuno affinity binding experiment, alcohol dehydrogenase. Also noted: species or system thermophilic bacterium.
Description: as §1

“And” between values parts separate entries of the source, which are not always exact repeats. Equal entries are not always repeated. “Also recorded” adds a separate entry of the source. Bounds are passed on as bounds.

MMP-9, sequence (P14780 107-444 limits assumed): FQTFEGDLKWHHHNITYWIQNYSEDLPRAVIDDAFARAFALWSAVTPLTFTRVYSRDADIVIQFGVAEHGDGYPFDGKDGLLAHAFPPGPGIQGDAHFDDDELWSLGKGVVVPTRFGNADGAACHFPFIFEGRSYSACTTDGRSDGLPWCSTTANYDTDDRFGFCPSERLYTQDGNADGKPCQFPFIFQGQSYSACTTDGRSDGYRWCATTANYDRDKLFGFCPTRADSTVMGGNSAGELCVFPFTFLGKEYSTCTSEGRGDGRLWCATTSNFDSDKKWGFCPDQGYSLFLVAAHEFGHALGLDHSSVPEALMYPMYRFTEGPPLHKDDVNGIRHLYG
TACE (ADAM-17), sequence (P78536 215-824, species assumed): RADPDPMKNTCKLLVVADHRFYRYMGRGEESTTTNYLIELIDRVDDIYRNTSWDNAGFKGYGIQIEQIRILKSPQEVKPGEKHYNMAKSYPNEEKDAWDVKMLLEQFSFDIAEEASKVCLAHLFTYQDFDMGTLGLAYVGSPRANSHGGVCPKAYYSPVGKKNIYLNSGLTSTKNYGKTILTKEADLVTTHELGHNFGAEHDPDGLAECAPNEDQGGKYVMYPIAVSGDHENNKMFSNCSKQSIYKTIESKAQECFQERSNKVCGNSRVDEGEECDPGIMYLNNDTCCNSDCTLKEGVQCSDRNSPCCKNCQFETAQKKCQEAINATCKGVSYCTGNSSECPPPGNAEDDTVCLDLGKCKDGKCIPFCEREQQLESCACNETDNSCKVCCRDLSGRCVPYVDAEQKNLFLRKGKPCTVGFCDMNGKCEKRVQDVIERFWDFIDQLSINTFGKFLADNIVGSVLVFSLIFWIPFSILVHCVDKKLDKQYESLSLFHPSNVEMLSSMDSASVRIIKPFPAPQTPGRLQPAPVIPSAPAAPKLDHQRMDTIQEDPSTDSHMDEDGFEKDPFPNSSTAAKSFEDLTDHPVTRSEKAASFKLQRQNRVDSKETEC

B1: 13E11: monoclonal antibody, IgG2b, raised against the hapten CoTCPP (antibody, V domains shown)
VH: EGGGLVQPGGSRKLSCAASGFTFTSFGMHWVRQAPEKGLEWVAYISSGNEIIYYADTVKGRFTISRDNPKNTLFLQMTSLRSEDTAMYYCARNYYRYGFYVMDYWGQG
VL: EIVVTQSPAILSASPGEKVTMTCRASSSVSYMHWYQQKPGSSPKPWIYATSNELASGVPARFSGSGSGTSYSLTISRVEAEDAATYYCQQWISNPLTFGAG
modifications: 13E11 mAb heavy chain; 13E11 mAb light chain
notes: monoclonal antibody, IgG2b, raised against the hapten CoTCPP
As a reminder, the Kd is the concentration at which binding is half-saturated. Low values mean tighter binding, high ones weaker binding. Usually IC50 stands for the concentration that inhibits the measured activity by half. Lower therefore signals greater potency in that assay. In assay [1], B1 registered a Kd of 0.09 µM. The “inhibition of proteolytic activity of MMP-2” value in the assay on MMP-2 is given as “inhibited”. Also, in the assay on MMP-9, the “mode of inhibition of MMP-9” value is given as “competitive inhibitor”, the concentration for half-maximal inhibition (IC50) was determined as 15 ± 0.8 µM and the “inhibition of proteolytic activity of MMP-9” value is on record as “inhibited”. Further, the “inhibitory effect toward MT1-MMP” value with MT1-MMP (MMP-14) (in-vitro fluorescence enzymatic activity assay) was “no inhibitory effect”. Moreover, the “inhibitory effect toward TACE” value with TACE (ADAM-17) is reported as “no inhibitory effect”. Also, the “cell surface gelatinase activity” value in assay [2] (1 μM mAb, listed as anti CoTCPP mAb) was “reduced; also recorded: significantly inhibited”. In addition, the “binding to MT1-MMP” value in the assay with MT1 catalytic domain was “no binding was detected”. In addition, in the assay on Carbonic Anhydrase (CA) [3], the “inhibition of Carbonic Anhydrase” value is on record as “no binding or inhibition”. Moreover, the “binding to Carbonic Anhydrase” value in the assay on Carbonic Anhydrase (CA) [4] is “no binding”. Further, the “inhibition of TbADH” value in assay [5] is “no binding or inhibition”. For the same molecule, the “binding to TbADH” value in [6] is “no binding”.

B2: 6C6: monoclonal antibody, IgG2a, raised against the hapten Imisdp; MMP-2 and MMP-9 inhibitory; SEQ ID NO: 1 (protein)
chain: CMETTQTPLSLPVSLGDQASISCRSSQSIVHSNGNTFLEWYLQKPGQSPKLLIYKVSNCRFSGVPDRFSGSGSGTDFTLKISRVEAEDLGVYYCFQASHVPPTFGGG
modifications: 6c6 mAb light chain
Usually Ki stands for the dissociation constant of the complex between target and ligand, obtained from inhibition or displacement. The low end stands for a stronger hold on the target, the high end for a looser hold on the target. As to B2, the Kd in assay [1] came out at 0.09 µM. Further, the half-maximal inhibitory concentration (IC50) with MMP-2 (Table 4) was 3 ± 0.2 µM; in the assay with MMP-9 it was 4.5 ± 0.2 µM; with MT1-MMP (MMP-14) (Table 4) it was 14.4 ± 0.7 µM; in the assay with TACE (ADAM-17) (Table 4), > 30 µM. Further, in the assay with MMP-2, the “inhibition of proteolytic activity of MMP-2” value is given as “inhibited”. The “mode of inhibition of MMP-9” value with MMP-9 is given as “competitive inhibition profile”. The “inhibition of proteolytic activity of MMP-9” value in the assay on MMP-9 was “inhibited”. For the same molecule, the inhibition constant Ki in the assay with MT1-MMP (MMP-14) is 14.4 µM and 15 µM; in the assay with MT1-MMP (MMP-14) (listed as anti Imisdp mAb), 10 µM. Besides, the “inhibitory effect toward TACE” value with TACE (ADAM-17) is on record as “did not display inhibitory effect”. In addition, the “inhibition of TACE” value with TACE (ADAM-17) (mAb concentrations of up to 30 μM) is on record as “neither MMP-7 nor TACE were inhibited to any measurable extent”. The “cell surface gelatinolytic activity” value in [2] (5 μM mAb) is reported as “significantly decreased; also recorded: significantly inhibited”. Also, the “inhibition of Carbonic Anhydrase” value in the assay with Carbonic Anhydrase (CA) [3] is on record as “no binding or inhibition”. Moreover, the “inhibitory effect toward Carbonic Anhydrase” value in the assay with Carbonic Anhydrase (CA) [3] (mAb concentrations up to 30 μM) is listed as “no inhibitory effect”. Besides, in the assay with Carbonic Anhydrase (CA) [4], the “binding to Carbonic Anhydrase” value is given as “no binding”. Besides, the “inhibition of TbADH” value in assay [5] was “no binding or inhibition”. Also, the “inhibitory effect toward TbADH” value in assay [5] (mAb concentrations up to 30 μM) was “no inhibitory effect”. Besides, in [6], the “binding to TbADH” value is “no binding”.
